In the DeepSol protein solubility set:

Experiment: soluble on expression in E. coli; label from the status in PepcDB or PDB records

Row | Sequence | soluble on expression in E. coli
1 | MVTPVSICNYISLPDDFPARNIAPQVKEVLKDFIDALSTIICDEEWRTSLNTNSATKKIFNNLDNLSYIQRTSFRGNDTLYNEKVQFKLTYPVKNGRHKENIEFQVVINLSPIYLDNFRHDGEINIFCAPNPKPVTMGRVFQTGVERVLFLFMNDFIEQFPMINLGAPIKRAHTPHIEPLPPDHHTAADYLRQFDLLVLNFISRGNFVILPRLWNNSEVHRWFVNKDPNLITAILDITDSELKEDLLQSLMDSLGSNKHVQPEVCICFLSLLAEQESPHFQDLFLFFANMLLHYHQFMNPNESDLNDVLMPASLSDDKIIKHMARRTLKLFVKNETPPKVTHEDLVKNRPRSPVRPPIPATAKTPDLPERH | not soluble
2 | MSRRLRRTKIVTTLGPATDRDNNLEKVIAAGANVVRMNFSHGSPEDHKMRADKVREIAAKLGRHVAILGDLQGPKIRVSTFKEGKVFLNIGDKFLLDANLGKGEGDKEKVGIDYKGLPADVVPGDILLLDDGRVQLKVLEVQGMKVFTEVTVGGPLSNNKGINKLGGGLSAEALTEKDKADIKTAALIGVDYLAVSFPRCGEDLNYARRLARDAGCDAKIVAKVERAEAVCSQDAMDDIILASDVVMVARGDLGVEIGDPELVGIQKALIRRARQLNRAVITATQMMESMITNPMPTRAEVMDVANAVLDGTDAVMLSAETAAGQYPSETVAAMARVCLGAEKIPSINVSKHRLDVQFDNVEEAIAMSAMYAANHLKGVTAIITMTESGRTALMTSRISSGLPIFAMSRHERTLNLTALYRGVTPVHFDSANDGVAAASEAVNLLRDKGYLMSGDLVIVTQGDVMSTVGSTNTTRILTVE | soluble
3 | MPAHSFRIAAIPGDGIGLEVLPEGIRVLEAAALKHGLALEFDTFEWASCDYYLQHGKMMPDDWAEQLKQYDAIYFGAVGWPDKVPDHISLWGSLLKFRREFDQYVNIRPVRLFPGVPCALANRKVGDIDFVVVRENTEGEYSSLGGIMFENTENEIVIQESIFTRRGVDRILKYAFDLAEKRERKHVTSATKSNGMAISMPYWDKRTEAMAAHYPHVSWDKQHIDILCARFVLQPERFDVVVASNLFGDILSDLGPACAGTIGIAPSANLNPERNFPSLFEPVHGSAPDIFGKNIANPIAMIWSGALMLEFLGQGDERYQRAHDDMLNAIERVIADGSVTPDMGGTLSTQQVGAAISDTLARLD | soluble
4 | MTLEQQDRTEQQLAALNAQVRQDLCYLNYPAANWSKPVSTSDGQLVSDVVIIGGGMCGLVAWHALTRAGIANIRIVDRAAKGEEGPWVTYARMETLRSPKNLLGPALGMASLTFRAWYTARFGKEAWEELFRIPRPMWMEYLSWYRQVMEIPVENNIHVTRVIPRLDGLLELEIEGGKADPIITRKLVMATGRDGLGEPTIPDFVKGMPRHVSWAHSADMIDFQRLKGKRVVVIGVGASAVDNAAEALEQGAGEVRLLARRKTMPTINKLMGIGSYGVTAGFAKIDPEWRWRLMDYSVKQQTPAPHNSTLRVSRHSNAYFHFDCGIQSMKEEGGEVVITTINGRVFRTDFVILGTGFSIDPVSRPELEMFNGQIACWEDRYTPPAGEENPGLGRFPWLQDDFSFTEKEPGAAPWLQHIHCFNYGSSVSLGKVSGDIPAISEGALWLARGIAASLFIADIDHHWEALKAYEKPELDGSEWTDADADPSMQKTALEHHHHHH | soluble
5 | MTFRNCVAVDLGASSGRVMLARYERECRSLTLREIHRFNNGLHSQNGYVTWDVDSLESAIRLGLNKVCEEGIRIDSIGIDTWGVDFVLLDQQGQRVGLPVAYRDSRTNGLMPQAQQQLGKRDIYQRSGIQFLPFNTLYQLRALTEQQPELIPHIAHALLMPDYFSYRLTGKMNWEYTNATTTQLVNINSDDWDESLLAWSGANKAWFGRPTHPGNVIGHWICPQGNEIPVVAVASHDTASAVIASPLNGSRAAYLSSGTWSLMGFESQTPFTNDTALAANITNEGGAEGRYRVLKNIMGLWLLQRVLQERQINDLPALIAATQALPACRFIINPNDDRFINPDEMCSEIQAACRETAQPIPGSDAELARCIFDSLALLYADVLHELAQLRGEDFSQLHIVGGGCQNTLLNQLCADACGIRVIAGPVEASTLGNIGIELMTLDELNNVDDFRQVVSTTANLTTFTPNPDSEIAHYVAQIHSTRQTKELCA | not soluble
6 | MSKLASPQSVRALLERHGLFADKRFGQNFLVSEAHLRRIVEAARPFTGPVFEVGPGLGALTRALLEAGAEVTAIEKDLRLRPVLEETLSGLPVRLVFQDALLYPWEEVPQGSLLVANLPYHIATPLVTRLLKTGRFARLVFLVQKEVAERMTARPKTPAYGVLTLRVAHHAVAERLFDLPPGAFFPPPKVWSSLVRLTPTGALDDPGLFRLVEAAFGKRRKTLLNALAAAGYPKARVEEALRALGLPPRVRAEELDLEAFRRLREGLEGAV | soluble
7 | MGSDKIHHHHHHMISEISHDVIWDLYEGEDYRDKILAEKWDVVFGEKILEMEDTLFVQSLRELELALKYAAARKDLETIKARFNLLLYTPELQGAKIKEILFQVLKFYNSFSIFALVSEKGVHRHAYVDFVTGGNYLSLIYHEDLPLNINSHTVFIDDVPPDFSPAGLGGRKIILGMDSTPKNNIPFVEIPPLRERKMDIPYMLDGVIKSLQFQGKTVKIDDDLTKLLIEYHWPGNTQEFLEKVYEIITLENPVDQAMKIASGIDEIKGLNLKEFVDSLVEFVEKKVIKKALEENEGNRKKVCEVLNMNYKTLSYKMKKYGLT | not soluble
8 | MTKSILLVGVGGQGTILASKLLTMGLMEAGYDVKMSEIHGMSQRGGSVSSQVRYGDCVHSPVIEIGGADILVSFEKMEALRWFNYLKPEGKALVNNHRIDSMTVLIGGAEYQESDIDAELSRLNAKVINAADKAEELGNSKIMNVILLGCLVKSMQLESIDWEKIISENVKPKFVELNIKAFHEGMEMVSK | not soluble
9 | MVAISEIKSTVDVTAANCLMLLSRVGQENVDGGDQKRVFTCKTCLKQFHSFQALGGHRASHKKPNNDALSSGLMKKVKTSSHPCPICGVEFPMGQALGGHMRRHRNESGAAGGALVTRALLPEPTVTTLKKSSSGKRVACLDLSLGMVDNLNLKLELGRTVY | not soluble
10 | DRSVIYPSEYFFLKGGNAFWRFGDSMEAAFQTLPPYTATADKHLILQTSYRASRLLVNFLPFVFLKTNDEALHFKARWDMVSRKPYLEMGYSES | not soluble
11 | MGSDKIHHHHHHMKKILVVGDFIKGSGLTNYLLNIYSSLPKDEFLISCVSYSGQHNIDTVLEEKKWEKFEVTPITQDIIKHFKDWNNFFKLHGNDFDEIHFNYSAPWNFIAILLAKLKSKAKIIVQSHNNYYSKQPKGLQKKVLAVLNVTGRTVIGRCSDIRLAVSEDSAQWMFGKRNVQILKNGINLKDFEYQPGPREELRKSIGINKGKKIIGFVGTLEKRKNPYFAIECLKKLNKEYILLMFGQGVLKKDLEKKIMDEGLEHRIKLMGVVDNLNEWYSVFDLFLFPSLTEGFGFALLEAQANGLKCFSSTSIPKEAKITNDVTSLNLSEINKWIDEIEKTSINDRERRSKQNCRIIEKKGFSIENTSKQFKRILLGDLS | not soluble
12 | MKSLSYKRIYKSQEYLATLGTIEYRSLFGSYSLTVDDTVFAMVSDGELYLRACEQSAQYCVKHPPVWLTYKKCGRSVTLNYYRVDESLWRNQLKLVRLSKYSLDAALKEKSTRNTRERLKDLPNMSFHLEAILGEVGRLAP | not soluble
13 | MALTTRRRALTTLGAALTGAVALPAGTALASQGGHGPRPLWRAHAHNDYEHPRPLLDALDHRFGSVEADIYLVGGQLLVAHDPEDLDPSRTLESLYLDPLAARVRAHHGRVYRRDRGSLQLLIDIKTEGEATYLELDRRLRRYKNLFTSYAHGRVFPGAVTAVVSGDRAARAPMAAQRSRRAFYDGRLTDLGTVAPASFVPLISDNWTLNFTWQGVGTFPAAERRRLRDIVGAAHARGQRVRFWATPDVAGPARDAVWAELLAAGVDHLNTDDLAGIEAFLDAHRDALEHHHHHH | soluble
14 | MAEHRGGSGNFAENREKASEAGRKGGQHSGGNFKNDPQRASEAGKKGGQNSHGGRKSDNS | not soluble
15 | AHHHHHHGSGGLALEGRSIVFASGKGGTGKTTTVANIGVALAQFGKEVILIDADITMANLSLILGMEDIPITLHDVLAGEAELKDAIYEGPAGVKVIPGGLSLEKVKKARPERLRELIKEISQMGDFILIDAPAGLELTSVTALLIGKELIIVTNPEISAITDSLKTKLVAEKLGTLPLGAILNRVTSEKTELSKEEIEAILEVPVIGIVPEDPEVKRASAYGVPLVIKNPTSPAAIAYKQIAAKLAGIKWTPPEPESPVKRIFKALFGGKR | soluble
16 | MSLHDLLLRNVRPMAGEACDIMIRNGKITGFGKFDAEPGLPVEDGKGAIAVPGLIDAHTHLDKTTWGMPWHVNNRAAILRERIDFERENRVQIGIDPHRQSMRHAIGLAANGGTHIRSHVDIDPTHGLKLVEGIWETREKLDGIIDIEVVAFPQSGVMVMPGTVELLDEALKQGCEVLGGIDPCGIDRDPKGQLDILFQLATKHGVPIDIHLHEAADLGAFTMELIFERIRANGMQGNVAISHAFALGMNDYLRVGRLIDEIARLDVAILTTGAPSASVPSIMRLKEAGVRVGGGCDGIRDTWGPWGQPDMLDRAKIIGMKNGLRSDVELAHVLHVVSRGGADVMGIEDYGMEIGCAADFTLLTGETLAHAVVDITPRPLVVKGGRVTARNGKAIVEAPEGHHHHHH | not soluble
17 | MINSPRVCIQVQSVYIEAQSSPDNERYVFAYTVTIRNLGRAPVQLLGRYWLITNGNGRETEVQGEGVVGVQPLIAPGEEYQYTSGAIIETPLGTMQGHYEMIDENGVPFSIDIPVFRLAVPTLIH | soluble
18 | MSLKTLSDDLYKQFSNFLAVQSGIVLGDNKQYLVKSRLSPLMTQFGIESLSDLVTRAMSVRERDLKMAVVDAMTTNETLWFRDTYPFQLLTDKIFPELGKSGRPIKIWSAASSSGQEPYSIAMTALEQQVKKPGTLPGGVQIVGTDISSTMLNQCKEGVYDSLALARGLSPERKKLFFEPYGDNKMRVVERVRKLTTFRPLNLLESYSLLGKFDIIFCRNVLIYFAPEVKSKILNQFAASLNPGGYLMLGASESLAGLTDRFEMIRCNPGIVYKVKEGHHHHHH | soluble
19 | NAIKESARLPELSLWEKIKAYFFTTHHAEALECIFNLYHHQELNLTPVQVRGAYIKLRALASQGCKEQFIIESQEHADKLIIKDDNGENILSIEVECHPEAFGLAKEINKS | soluble
20 | FSAPIKAERTAFRRAVCANQYDAVIDAQGLVKSAALVTRLAHGIKHGMDWSTAREPLASLFYNRKHHIAKQQHAVERTRELFAKSLGYDKPQSQGDYAIAKHFLHCQQAVSDPYAVFLHATTRDDKHWPEANWRELIGLVGNTGLRIKLPWGAPHEEARAKRLAEGFDYVDVLPRMSLEEVARVLAGAKFVVSVDTGLSHLTAALDRPNITLYGPTDPGLIGGYGKNQ | not soluble
21 | MVRYWIYLLSDDVASHYRHRAEKIVELLREHQYAKAPLKAICRKQVEFITERLSFSRLELGLKQYFAGRVGKNLERNMFVLQNDAGEEALLVVQKRRLLLVADSAPLASDIGRALARLSPTFLAVDADFVDYYWLSAPRQGRKFA | not soluble
